Results: patent publication US20210063414A1, “METHODS FOR PREVENTING AND/OR TREATING BONE LOSS CONDITIONS BY MODULATING IRISIN” (Dana-Farber Cancer Institute, Inc., priority 2018, published 2021)

Experiments:
Experiment in all cases: Crosslinking/co-immunoprecipitation/mass spectrometry (TMT quantitative proteomics) to identify irisin receptors
Format in all cases: binding
[1] = molecular target: T1, MLO-Y4 cell surface proteins (Mus musculus, UniProt E9Q557); settings: co-precipitated protein Dsp (DESP_MOUSE)
T1 construct: endogenous in cells; host or cells: MLO-Y4
T1 sequence (E9Q557 whole entry): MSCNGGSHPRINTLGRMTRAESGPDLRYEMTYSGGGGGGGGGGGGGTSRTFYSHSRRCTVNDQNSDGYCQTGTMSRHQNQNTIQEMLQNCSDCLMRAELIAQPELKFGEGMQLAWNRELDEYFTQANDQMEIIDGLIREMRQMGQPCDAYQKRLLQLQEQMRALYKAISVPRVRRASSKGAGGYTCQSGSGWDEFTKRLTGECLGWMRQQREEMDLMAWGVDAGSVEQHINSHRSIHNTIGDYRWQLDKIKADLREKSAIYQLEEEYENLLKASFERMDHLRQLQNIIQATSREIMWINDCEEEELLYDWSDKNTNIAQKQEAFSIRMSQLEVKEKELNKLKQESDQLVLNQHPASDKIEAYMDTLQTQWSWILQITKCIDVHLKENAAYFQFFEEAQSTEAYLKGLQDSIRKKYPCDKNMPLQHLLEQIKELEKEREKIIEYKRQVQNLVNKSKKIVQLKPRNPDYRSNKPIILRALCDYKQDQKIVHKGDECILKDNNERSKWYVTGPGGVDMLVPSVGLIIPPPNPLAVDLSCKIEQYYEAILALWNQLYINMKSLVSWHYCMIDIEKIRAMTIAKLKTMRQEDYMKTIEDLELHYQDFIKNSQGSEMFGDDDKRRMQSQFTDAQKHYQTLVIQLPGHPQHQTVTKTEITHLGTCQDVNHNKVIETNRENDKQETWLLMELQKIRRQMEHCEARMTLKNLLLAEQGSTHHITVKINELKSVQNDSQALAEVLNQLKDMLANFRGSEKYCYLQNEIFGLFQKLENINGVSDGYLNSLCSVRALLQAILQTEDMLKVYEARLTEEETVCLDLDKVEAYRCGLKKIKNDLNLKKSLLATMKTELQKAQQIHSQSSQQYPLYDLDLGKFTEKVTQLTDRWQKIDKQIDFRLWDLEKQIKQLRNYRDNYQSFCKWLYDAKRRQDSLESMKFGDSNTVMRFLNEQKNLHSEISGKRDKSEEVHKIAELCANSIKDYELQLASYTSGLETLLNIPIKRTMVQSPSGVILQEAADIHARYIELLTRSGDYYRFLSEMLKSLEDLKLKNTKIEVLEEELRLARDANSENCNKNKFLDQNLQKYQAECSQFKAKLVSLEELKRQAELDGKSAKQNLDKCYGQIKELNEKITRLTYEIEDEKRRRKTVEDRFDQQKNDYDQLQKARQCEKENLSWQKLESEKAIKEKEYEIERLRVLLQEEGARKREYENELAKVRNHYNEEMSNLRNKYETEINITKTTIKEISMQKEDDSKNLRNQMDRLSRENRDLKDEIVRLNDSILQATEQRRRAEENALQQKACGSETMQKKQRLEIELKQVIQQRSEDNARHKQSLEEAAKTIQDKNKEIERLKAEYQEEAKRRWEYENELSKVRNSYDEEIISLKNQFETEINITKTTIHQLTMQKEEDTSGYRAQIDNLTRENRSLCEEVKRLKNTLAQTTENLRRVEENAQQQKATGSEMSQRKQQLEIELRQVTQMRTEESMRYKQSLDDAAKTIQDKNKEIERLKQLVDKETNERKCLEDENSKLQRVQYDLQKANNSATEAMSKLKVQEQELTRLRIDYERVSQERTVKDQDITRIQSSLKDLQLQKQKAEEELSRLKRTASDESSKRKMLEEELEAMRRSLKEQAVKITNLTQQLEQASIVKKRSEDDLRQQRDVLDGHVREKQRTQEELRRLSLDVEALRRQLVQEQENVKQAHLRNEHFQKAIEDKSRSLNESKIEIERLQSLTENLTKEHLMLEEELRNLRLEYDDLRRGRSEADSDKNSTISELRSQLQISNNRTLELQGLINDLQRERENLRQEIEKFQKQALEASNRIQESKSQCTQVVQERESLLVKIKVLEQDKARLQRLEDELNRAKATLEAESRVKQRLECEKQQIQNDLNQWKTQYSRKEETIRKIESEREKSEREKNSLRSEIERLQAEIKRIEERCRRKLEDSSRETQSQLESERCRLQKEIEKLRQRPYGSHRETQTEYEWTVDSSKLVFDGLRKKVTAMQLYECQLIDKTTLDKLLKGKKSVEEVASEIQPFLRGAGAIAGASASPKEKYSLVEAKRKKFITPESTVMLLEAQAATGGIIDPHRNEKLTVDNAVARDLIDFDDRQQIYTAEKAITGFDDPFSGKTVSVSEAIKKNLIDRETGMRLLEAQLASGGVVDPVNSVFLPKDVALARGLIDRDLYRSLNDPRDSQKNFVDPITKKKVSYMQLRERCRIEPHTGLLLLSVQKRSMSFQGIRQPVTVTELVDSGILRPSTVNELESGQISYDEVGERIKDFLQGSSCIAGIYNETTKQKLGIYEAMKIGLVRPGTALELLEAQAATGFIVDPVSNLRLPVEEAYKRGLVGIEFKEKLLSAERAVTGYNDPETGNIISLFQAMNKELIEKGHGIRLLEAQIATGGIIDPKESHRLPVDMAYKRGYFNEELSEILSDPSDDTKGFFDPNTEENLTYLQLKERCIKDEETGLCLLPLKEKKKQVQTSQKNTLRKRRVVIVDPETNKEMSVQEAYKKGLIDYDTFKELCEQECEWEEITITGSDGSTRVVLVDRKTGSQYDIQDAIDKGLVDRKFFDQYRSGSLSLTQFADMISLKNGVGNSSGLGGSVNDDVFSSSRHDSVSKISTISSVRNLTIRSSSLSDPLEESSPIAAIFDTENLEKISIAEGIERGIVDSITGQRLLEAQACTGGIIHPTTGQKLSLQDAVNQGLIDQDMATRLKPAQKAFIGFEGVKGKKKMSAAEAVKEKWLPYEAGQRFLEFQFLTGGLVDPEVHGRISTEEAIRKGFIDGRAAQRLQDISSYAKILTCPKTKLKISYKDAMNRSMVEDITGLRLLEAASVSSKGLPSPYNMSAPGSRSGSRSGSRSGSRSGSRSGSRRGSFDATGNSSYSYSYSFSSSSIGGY
Procedure, shortened: (§1)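 Mouse MLO-Y4 cells were switched to serum-free FreeStyle medium for 4 h, chilled, then exposed to 10 nM His-tagged irisin (or adipsin as control) for 20 min. Cells were crosslinked with 1.5 mM DTSSP (30 min, ice), and bound proteins were pulled down on Ni-NTA and eluted with 250 mM imidazole. Eluates were separated by SDS-PAGE, trypsin-digested in gel, TMT 6-plex labelled and quantified by MS3-based LC-MS/MS on an Orbitrap Fusion Lumos.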

[2] = molecular target: T2, MLO-Y4 cell surface proteins (Mus musculus, UniProt P16460); settings: co-precipitated protein Ass1 (ASSY_MOUSE)
T2 construct: endogenous in cells; host or cells: MLO-Y4
T2 sequence (P16460 1-412): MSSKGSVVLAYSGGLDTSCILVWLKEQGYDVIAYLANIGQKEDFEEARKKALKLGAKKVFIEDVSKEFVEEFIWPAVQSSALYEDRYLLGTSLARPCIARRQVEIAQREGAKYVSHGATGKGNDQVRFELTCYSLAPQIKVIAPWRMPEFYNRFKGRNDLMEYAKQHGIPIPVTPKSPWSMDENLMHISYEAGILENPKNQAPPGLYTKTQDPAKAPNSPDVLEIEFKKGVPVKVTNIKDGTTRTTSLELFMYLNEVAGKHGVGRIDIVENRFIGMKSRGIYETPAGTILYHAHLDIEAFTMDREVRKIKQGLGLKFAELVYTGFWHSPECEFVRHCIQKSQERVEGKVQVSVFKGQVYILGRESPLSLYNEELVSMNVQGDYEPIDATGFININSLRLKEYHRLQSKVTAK
Procedure, shortened: as §1

[3] = molecular target: T3, MLO-Y4 cell surface proteins (Mus musculus, UniProt Q66L42); settings: co-precipitated protein Map3k10 (M3K10_MOUSE)
T3 construct: endogenous in cells; host or cells: MLO-Y4
T3 sequence (Q66L42 whole entry): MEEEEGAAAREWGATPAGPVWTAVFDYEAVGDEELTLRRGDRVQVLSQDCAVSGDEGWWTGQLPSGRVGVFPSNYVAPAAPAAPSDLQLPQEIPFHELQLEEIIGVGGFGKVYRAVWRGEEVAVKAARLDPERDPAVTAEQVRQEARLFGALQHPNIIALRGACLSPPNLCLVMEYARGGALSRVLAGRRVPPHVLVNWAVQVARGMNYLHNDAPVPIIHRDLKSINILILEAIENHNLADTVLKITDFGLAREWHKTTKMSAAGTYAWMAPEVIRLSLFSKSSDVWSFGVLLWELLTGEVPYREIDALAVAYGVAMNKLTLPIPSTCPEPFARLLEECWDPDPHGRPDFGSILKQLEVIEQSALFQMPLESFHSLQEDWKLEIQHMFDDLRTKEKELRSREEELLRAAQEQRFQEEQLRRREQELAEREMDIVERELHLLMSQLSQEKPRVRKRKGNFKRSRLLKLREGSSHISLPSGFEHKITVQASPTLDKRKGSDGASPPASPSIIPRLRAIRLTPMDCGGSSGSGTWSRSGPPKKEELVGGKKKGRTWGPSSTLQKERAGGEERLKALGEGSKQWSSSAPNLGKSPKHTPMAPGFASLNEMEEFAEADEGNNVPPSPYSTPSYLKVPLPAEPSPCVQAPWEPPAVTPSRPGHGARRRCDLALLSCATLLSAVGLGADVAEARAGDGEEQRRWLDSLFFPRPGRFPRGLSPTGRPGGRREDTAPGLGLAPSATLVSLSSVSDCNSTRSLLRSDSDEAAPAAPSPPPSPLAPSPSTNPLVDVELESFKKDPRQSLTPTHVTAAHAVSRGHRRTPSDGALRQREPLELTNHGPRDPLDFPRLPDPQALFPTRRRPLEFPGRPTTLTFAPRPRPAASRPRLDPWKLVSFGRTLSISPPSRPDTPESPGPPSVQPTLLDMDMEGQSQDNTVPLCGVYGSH
Procedure, shortened: as §1

[4] = molecular target: T4, MLO-Y4 cell surface proteins (Mus musculus, UniProt Q9CY64); settings: co-precipitated protein Blvra (BIEA_MOUSE)
T4 construct: endogenous in cells; host or cells: MLO-Y4
T4 sequence (Q9CY64 3-295): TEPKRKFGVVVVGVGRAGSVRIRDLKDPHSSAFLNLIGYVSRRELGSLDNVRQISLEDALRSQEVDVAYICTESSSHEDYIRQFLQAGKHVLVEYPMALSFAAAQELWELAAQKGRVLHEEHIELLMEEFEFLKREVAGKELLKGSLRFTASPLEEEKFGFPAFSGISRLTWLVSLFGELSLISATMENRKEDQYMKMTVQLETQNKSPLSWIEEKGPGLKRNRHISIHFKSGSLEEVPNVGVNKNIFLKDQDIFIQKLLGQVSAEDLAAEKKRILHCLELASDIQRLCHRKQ
Procedure, shortened: as §1

[5] = molecular target: T5, MLO-Y4 cell surface proteins (Mus musculus, UniProt Q9CYR0); settings: co-precipitated protein Ssbp1 (SSBP_MOUSE)
T5 construct: endogenous in cells; host or cells: MLO-Y4
T5 sequence (Q9CYR0 17-152): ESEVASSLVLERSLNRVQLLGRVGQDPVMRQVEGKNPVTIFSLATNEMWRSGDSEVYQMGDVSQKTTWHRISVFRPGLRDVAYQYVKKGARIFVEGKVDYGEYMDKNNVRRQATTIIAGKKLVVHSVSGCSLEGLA
Procedure, shortened: as §1

TMT signal-to-noise ratio [1]: 79.7679
TMT signal-to-noise ratio [2]: 285.885
TMT signal-to-noise ratio [3]: 109.366
TMT signal-to-noise ratio [4]: 302.865
TMT signal-to-noise ratio [5]: 432.759
Substance: adipsin
